Drawing on article PMC2995059, this text covers reduction of co-precipitated Drosha after RNase A pre-treatment of the extract for one molecule.

This test has as its target HA-tagged full-size GAM (GAM/ZFp/ZNF512B) (human) (UniProt Q96KM6). Briefly: co-IP.
Chain of UniProt Q96KM6 (Q96KM6 whole entry): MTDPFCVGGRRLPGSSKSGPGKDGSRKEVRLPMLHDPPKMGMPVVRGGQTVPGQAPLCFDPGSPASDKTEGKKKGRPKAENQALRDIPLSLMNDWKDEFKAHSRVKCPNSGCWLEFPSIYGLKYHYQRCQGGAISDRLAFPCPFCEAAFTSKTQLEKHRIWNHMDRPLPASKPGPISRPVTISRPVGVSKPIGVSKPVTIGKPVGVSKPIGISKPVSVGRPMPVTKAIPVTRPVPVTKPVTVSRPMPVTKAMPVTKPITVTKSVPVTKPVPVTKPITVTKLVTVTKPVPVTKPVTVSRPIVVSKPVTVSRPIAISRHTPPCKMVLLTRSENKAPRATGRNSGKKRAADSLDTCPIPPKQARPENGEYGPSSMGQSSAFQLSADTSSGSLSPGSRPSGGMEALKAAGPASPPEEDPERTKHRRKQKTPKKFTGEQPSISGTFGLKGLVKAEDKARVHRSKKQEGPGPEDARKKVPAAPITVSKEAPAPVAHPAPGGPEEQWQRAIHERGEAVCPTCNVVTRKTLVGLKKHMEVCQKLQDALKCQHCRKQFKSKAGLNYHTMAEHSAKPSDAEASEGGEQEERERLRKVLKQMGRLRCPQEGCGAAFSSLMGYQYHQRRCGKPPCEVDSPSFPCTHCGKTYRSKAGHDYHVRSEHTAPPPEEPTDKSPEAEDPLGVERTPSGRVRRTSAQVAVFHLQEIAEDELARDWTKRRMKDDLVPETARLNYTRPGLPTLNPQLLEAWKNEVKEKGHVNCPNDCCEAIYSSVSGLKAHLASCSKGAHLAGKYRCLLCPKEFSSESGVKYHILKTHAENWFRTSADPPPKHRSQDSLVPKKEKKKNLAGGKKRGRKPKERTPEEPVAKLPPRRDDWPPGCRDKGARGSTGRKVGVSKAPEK

B1: endogenous Drosha (enzyme)
chain: MMQGNTCHRMSFHPGRGCPRGRGGHGARPSAPSFRPQNLRLLHPQQPPVQYQYEPPSAPSTTFSNSPAPNFLPPRPDFVPFPPPMPPSAQGPLPPCPIRPPFPNHQMRHPFPVPPCFPPMPPPMPCPNNPPVPGAPPGQGTFPFMMPPPSMPHPPPPPVMPQQVNYQYPPGYSHHNFPPPSFNSFQNNPSSFLPSANNSSSPHFRHLPPYPLPKAPSERRSPERLKHYDDHRHRDHSHGRGERHRSLDRRERGRSPDRRRQDSRYRSDYDRGRTPSRHRSYERSRERERERHRHRDNRRSPSLERSYKKEYKRSGRSYGLSVVPEPAGCTPELPGEIIKNTDSWAPPLEIVNHRSPSREKKRARWEEEKDRWSDNQSSGKDKNYTSIKEKEPEETMPDKNEEEEEELLKPVWIRCTHSENYYSSDPMDQVGDSTVVGTSRLRDLYDKFEEELGSRQEKAKAARPPWEPPKTKLDEDLESSSESECESDEDSTCSSSSDSEVFDVIAEIKRKKAHPDRLHDELWYNDPGQMNDGPLCKCSAKARRTGIRHSIYPGEEAIKPCRPMTNNAGRLFHYRITVSPPTNFLTDRPTVIEYDDHEYIFEGFSMFAHAPLTNIPLCKVIRFNIDYTIHFIEEMMPENFCVKGLELFSLFLFRDILELYDWNLKGPLFEDSPPCCPRFHFMPRFVRFLPDGGKEVLSMHQILLYLLRCSKALVPEEEIANMLQWEELEWQKYAEECKGMIVTNPGTKPSSVRIDQLDREQFNPDVITFPIIVHFGIRPAQLSYAGDPQYQKLWKSYVKLRHLLANSPKVKQTDKQKLAQREEALQKIRQKNTMRREVTVELSSQGFWKTGIRSDVCQHAMMLPVLTHHIRYHQCLMHLDKLIGYTFQDRCLLQLAMTHPSHHLNFGMNPDHARNSLSNCGIRQPKYGDRKVHHMHMRKKGINTLINIMSRLGQDDPTPSRINHNERLEFLGDAVVEFLTSVHLYYLFPSLEEGGLATYRTAIVQNQHLAMLAKKLELDRFMLYAHGPDLCRESDLRHAMANCFEALIGAVYLEGSLEEAKQLFGRLLFNDPDLREVWLNYPLHPLQLQEPNTDRQLIETSPVLQKLTEFEEAIGVIFTHVRLLARAFTLRTVGFNHLTLGHNQRMEFLGDSIMQLVATEYLFIHFPDHHEGHLTLLRSSLVNNRTQAKVAEELGMQEYAITNDKTKRPVALRTKTLADLLESFIAALYIDKDLEYVHTFMNVCFFPRLKEFILNQDWNDPKSQLQQCCLTLRTEGKEPDIPLYKTLQTVGPSHARTYTVAVYFKGERIGCGKGPSIQQAEMGAAMDALEKYNFPQMAHQKRFIERKYRQELKEMRWEREHQEREPDETEDIKK
Consider B1, for which the reduction of co-precipitated Drosha after RNase A pre-treatment of the extract was 50%.
